# B1: SGN000186 sgRNA (Table 11) ; SGN000186 target (Table 11) (ssRNA ; dsDNA)
# RNA: GGACAGUGCGCAUCUCCCUGGUCAUAGUUCCAUUAAAGCCAAAAGUGGCUUUGAUGUUUCUAUGAUAAGGGUUUCGACCCGUGGCGUCGGGGAUCGCCUGCCCAUUGAAAUGGGCUUCUCCCCAUUUAUU
# DNA 1: GGACAGTGCGCATCTCCCTG
# DNA 2: CAGGGAGATGCGCACTGTCC
# Key:
# Conditions in all cases: tags: SV40 NLS, 3xFLAG, nucleoplasmin NLS
# [1] = target: LPG50148-nAPG07433.1 (synthetic); experiment: cell_activity; mutated reads, HEK293FT; PAM 3' of target
# Description: (§1) 500 ng of plasmid comprising an expression cassette comprising a coding sequence for a fusion protein shown in Table 10 and 500 ng of plasmid comprising an expression cassette encoding for an sgRNA shown in Table 11 were co-transfected into HEK293FT cells at 75-90% confluency in 24-well plates using Lipofectamine 2000 reagent (Life Technologies). Cells were then incubated at 37° C. for 72 h. Following incubation, genomic DNA was then extracted using NucleoSpin 96 Tissue (Macherey-Nagel) following the manufacturer's protocol. The genomic region flanking the targeted genomic site was PCR amplified using the primers in Table 11 and products were purified using ZR-96 DNA Clean and Concentrator (Zymo Research) following the manufacturer's protocol. The purified PCR products underwent Next Generation Sequencing on Illumina MiSeq. Typically, 100,000 of 250 bp paired-end reads (2×100,000 reads) are generated per amplicon. The reads were analyzed using CRISPResso (Pinello, et al. 2016 Nature Biotech, 34:695-697) to calculate the rates of editing. Output alignments were analyzed for INDEL formation or introduction of specific adenine mutations.
# (§2) The editing rate for adenines within or proximal to the target sequence is indicated. “A5” indicates, for example, an adenine at position 5 of the target sequence. The position of each nucleotide in the target sequence was determined by numbering the first nucleotide in the target sequence closest to the PAM (which is 3′ of the target for APG07433.1) as position 1, and the position number increases in the 5′ direction away from the PAM sequence. The tables also show which nucleotide the adenine was changed to, and at what rate.
# [2] = target: LPG50140-nAPG07433.1 (synthetic); experiment: as above
# Description: as §1, §2
# [3] = target: LPG50177-nAPG07433.1 (synthetic); experiment: cell_activity; mutated reads, HEK293FT
# LPG50177-nAPG07433.1 (synthetic), sequence (chain, as listed by the source): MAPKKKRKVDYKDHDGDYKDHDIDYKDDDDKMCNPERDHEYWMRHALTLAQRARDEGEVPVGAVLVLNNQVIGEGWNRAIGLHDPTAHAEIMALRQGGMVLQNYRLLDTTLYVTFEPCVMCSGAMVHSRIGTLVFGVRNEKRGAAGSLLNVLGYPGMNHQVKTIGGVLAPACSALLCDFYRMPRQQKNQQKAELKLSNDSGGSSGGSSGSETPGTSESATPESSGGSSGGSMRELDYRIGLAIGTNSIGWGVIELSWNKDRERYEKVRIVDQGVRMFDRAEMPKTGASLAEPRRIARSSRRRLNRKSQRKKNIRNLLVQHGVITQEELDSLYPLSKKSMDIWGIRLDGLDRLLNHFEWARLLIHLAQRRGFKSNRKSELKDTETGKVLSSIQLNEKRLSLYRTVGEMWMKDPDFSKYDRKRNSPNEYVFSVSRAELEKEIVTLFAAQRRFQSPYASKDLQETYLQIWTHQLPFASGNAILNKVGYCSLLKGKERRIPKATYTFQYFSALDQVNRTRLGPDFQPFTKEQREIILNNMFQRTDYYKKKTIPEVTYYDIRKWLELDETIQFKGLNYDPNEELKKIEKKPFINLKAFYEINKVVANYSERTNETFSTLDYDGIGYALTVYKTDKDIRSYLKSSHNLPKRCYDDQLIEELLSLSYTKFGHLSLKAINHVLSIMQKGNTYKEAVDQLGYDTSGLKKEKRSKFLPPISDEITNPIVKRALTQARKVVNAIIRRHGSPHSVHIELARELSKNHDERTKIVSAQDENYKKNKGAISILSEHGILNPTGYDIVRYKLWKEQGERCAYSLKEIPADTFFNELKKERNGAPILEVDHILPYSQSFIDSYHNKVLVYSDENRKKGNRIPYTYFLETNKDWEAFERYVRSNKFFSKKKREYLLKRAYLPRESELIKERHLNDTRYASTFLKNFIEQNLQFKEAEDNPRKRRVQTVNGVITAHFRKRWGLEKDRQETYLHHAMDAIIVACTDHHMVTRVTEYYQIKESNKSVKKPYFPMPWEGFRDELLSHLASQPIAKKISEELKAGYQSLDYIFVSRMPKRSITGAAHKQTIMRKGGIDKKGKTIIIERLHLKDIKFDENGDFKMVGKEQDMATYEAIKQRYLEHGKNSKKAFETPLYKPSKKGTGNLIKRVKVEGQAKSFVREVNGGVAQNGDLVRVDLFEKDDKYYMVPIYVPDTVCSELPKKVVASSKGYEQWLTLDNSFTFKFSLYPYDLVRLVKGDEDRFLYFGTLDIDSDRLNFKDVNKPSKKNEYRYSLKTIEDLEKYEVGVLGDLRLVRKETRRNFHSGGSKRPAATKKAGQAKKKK
# Description: as §1, §2
# [4] = target: LPG50163-nAPG07433.1 (synthetic); experiment: cell_activity; mutated reads, HEK293FT
# Description: as §1, §2
# [5] = target: LPG50142-nAPG07433.1 (synthetic); experiment: cell_activity; mutated reads, HEK293FT
# Description: as §1, §2
# [6] = target: LPG50155-nAPG07433.1 (synthetic); experiment: cell_activity; mutated reads, HEK293FT
# Description: as §1, §2
# [7] = target: LPG50165-nAPG07433.1 (synthetic); experiment: cell_activity; mutated reads, HEK293FT
# Description: as §1, §2
# [8] = target: LPG50166-nAPG07433.1 (synthetic); experiment: cell_activity; mutated reads, HEK293FT
# Description: as §1, §2
# [9] = target: LPG50167-nAPG07433.1 (synthetic); experiment: cell_activity; mutated reads, HEK293FT
# Description: as §1, §2
# [10] = target: LPG50170-nAPG07433.1 (synthetic); experiment: cell_activity; mutated reads, HEK293FT
# Description: as §1, §2
# [11] = target: LPG50152-nAPG07433.1 (synthetic); experiment: cell_activity; mutated reads, HEK293FT
# LPG50152-nAPG07433.1 (synthetic), sequence (chain, as listed by the source): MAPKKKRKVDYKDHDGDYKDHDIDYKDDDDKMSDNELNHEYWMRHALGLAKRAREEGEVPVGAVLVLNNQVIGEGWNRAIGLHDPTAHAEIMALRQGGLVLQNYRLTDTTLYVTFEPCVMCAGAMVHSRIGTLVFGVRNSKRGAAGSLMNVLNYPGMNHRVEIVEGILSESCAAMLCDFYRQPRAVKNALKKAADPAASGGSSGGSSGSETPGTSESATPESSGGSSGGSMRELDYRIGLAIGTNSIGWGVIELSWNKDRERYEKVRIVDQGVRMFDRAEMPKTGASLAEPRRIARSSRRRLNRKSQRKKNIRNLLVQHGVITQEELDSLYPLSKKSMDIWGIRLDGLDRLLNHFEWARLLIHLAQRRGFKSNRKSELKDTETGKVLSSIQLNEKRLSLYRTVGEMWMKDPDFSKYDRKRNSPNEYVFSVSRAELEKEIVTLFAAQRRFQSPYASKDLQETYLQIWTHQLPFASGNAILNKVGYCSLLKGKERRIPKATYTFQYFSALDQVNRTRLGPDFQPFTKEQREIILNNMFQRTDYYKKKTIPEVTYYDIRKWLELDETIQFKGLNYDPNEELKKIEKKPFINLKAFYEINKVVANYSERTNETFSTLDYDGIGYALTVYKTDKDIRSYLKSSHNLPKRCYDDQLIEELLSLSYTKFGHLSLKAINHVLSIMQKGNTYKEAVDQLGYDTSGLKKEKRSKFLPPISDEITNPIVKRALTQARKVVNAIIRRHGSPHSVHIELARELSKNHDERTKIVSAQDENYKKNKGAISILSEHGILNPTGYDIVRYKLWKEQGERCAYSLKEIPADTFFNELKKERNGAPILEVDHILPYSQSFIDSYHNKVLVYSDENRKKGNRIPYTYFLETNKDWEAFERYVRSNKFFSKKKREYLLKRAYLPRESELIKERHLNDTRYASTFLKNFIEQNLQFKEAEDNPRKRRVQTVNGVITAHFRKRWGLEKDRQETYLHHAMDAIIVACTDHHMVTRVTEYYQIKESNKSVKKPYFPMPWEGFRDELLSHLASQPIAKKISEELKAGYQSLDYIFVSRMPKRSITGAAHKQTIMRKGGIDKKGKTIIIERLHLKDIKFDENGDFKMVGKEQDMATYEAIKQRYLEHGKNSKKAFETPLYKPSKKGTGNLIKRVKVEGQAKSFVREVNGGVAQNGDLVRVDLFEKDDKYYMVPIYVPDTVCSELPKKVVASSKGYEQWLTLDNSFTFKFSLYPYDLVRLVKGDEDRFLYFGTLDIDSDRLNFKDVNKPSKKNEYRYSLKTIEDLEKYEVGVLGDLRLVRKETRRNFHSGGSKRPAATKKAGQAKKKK
# Description: as §1, §2
# [12] = target: LPG50179-nAPG07433.1 (synthetic); experiment: cell_activity; mutated reads, HEK293FT
# Description: as §1, §2
# [13] = target: LPG50174-nAPG07433.1 (synthetic); experiment: cell_activity; mutated reads, HEK293FT
# Description: as §1, §2
# [14] = target: LPG50176-nAPG07433.1 (synthetic); experiment: cell_activity; mutated reads, HEK293FT
# Description: as §1, §2
# [15] = target: LPG50171-nAPG07433.1 (synthetic); experiment: cell_activity; mutated reads, HEK293FT
# Description: as §1, §2
# [16] = target: LPG50162-nAPG07433.1 (synthetic); experiment: cell_activity; mutated reads, HEK293FT
# Description: as §1, §2
# [17] = target: LPG50157-nAPG07433.1 (synthetic); experiment: cell_activity; mutated reads, HEK293FT
# Description: as §1, §2
# [18] = target: LPG50150-nAPG07433.1 (synthetic); experiment: cell_activity; mutated reads, HEK293FT
# Description: as §1, §2
# [19] = target: LPG50141-nAPG07433.1 (synthetic); experiment: cell_activity; mutated reads, HEK293FT
# Description: as §1, §2
# [20] = target: LPG50158-nAPG07433.1 (synthetic); experiment: cell_activity; mutated reads, HEK293FT
# Description: as §1, §2
# [21] = target: LPG50181-nAPG07433.1 (synthetic); experiment: cell_activity; mutated reads, HEK293FT
# Description: as §1, §2
# [22] = target: LPG50182-nAPG07433.1 (synthetic); experiment: cell_activity; mutated reads, HEK293FT
# Description: as §1, §2
# [23] = target: LPG50145-nAPG07433.1 (synthetic); experiment: cell_activity; mutated reads, HEK293FT
# Description: as §1, §2
# [24] = target: LPG50169-nAPG07433.1 (synthetic); experiment: cell_activity; mutated reads, HEK293FT
# Description: as §1, §2
# [25] = target: LPG50156-nAPG07433.1 (synthetic); experiment: cell_activity; mutated reads, HEK293FT
# LPG50156-nAPG07433.1 (synthetic), sequence (chain, as listed by the source): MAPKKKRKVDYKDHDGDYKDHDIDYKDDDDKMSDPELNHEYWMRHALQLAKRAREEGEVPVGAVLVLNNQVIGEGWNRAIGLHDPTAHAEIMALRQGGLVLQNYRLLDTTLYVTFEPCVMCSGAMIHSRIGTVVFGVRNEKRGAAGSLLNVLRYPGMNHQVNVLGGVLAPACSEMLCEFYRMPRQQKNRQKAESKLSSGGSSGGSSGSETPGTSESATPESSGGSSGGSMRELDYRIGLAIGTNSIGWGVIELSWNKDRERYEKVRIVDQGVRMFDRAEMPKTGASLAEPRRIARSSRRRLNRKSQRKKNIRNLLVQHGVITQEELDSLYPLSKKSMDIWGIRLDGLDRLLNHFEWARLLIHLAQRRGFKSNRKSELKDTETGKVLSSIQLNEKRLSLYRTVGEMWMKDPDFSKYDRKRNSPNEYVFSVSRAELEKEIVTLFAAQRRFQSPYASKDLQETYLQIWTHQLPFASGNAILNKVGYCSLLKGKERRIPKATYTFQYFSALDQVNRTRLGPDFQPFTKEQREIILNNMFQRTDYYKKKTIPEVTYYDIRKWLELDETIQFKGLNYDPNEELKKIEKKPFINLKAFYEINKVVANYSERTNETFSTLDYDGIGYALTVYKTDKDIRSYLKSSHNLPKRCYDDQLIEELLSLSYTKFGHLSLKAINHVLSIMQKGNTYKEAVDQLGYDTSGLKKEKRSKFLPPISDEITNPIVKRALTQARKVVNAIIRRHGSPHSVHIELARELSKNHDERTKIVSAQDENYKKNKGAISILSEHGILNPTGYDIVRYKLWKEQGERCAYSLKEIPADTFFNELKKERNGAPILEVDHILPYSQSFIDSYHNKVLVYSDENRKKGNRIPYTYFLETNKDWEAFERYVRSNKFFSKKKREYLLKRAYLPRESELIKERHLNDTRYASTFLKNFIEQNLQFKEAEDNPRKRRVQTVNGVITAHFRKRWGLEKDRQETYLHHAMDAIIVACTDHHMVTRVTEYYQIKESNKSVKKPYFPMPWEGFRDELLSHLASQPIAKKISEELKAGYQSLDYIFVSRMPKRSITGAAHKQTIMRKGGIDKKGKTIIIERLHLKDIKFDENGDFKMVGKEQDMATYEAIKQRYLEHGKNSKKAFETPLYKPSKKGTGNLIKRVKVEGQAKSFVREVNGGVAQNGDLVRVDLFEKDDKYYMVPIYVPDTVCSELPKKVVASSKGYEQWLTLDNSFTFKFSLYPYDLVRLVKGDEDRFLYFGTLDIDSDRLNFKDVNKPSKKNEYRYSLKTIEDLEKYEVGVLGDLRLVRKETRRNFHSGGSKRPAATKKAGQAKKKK
# Description: as §1, §2
# [26] = target: LPG50159-nAPG07433.1 (synthetic); experiment: cell_activity; mutated reads, HEK293FT
# Description: as §1, §2
# [27] = target: LPG50168-nAPG07433.1 (synthetic); experiment: cell_activity; mutated reads, HEK293FT
# Description: as §1, §2
# [28] = target: LPG50160-nAPG07433.1 (synthetic); experiment: cell_activity; mutated reads, HEK293FT
# Description: as §1, §2
# [29] = target: LPG50146-nAPG07433.1 (synthetic); experiment: cell_activity; mutated reads, HEK293FT
# Description: as §1, §2
# [30] = target: LPG50149-nAPG07433.1 (synthetic); experiment: cell_activity; mutated reads, HEK293FT
# Description: as §1, §2
# [31] = target: LPG50173-nAPG07433.1 (synthetic); experiment: cell_activity; mutated reads, HEK293FT
# Description: as §1, §2
# [32] = target: LPG50143-nAPG07433.1 (synthetic); experiment: cell_activity; mutated reads, HEK293FT
# Description: as §1, §2
# [33] = target: LPG50175-nAPG07433.1 (synthetic); experiment: cell_activity; mutated reads, HEK293FT
# Description: as §1, §2
# [34] = target: LPG50144-nAPG07433.1 (synthetic); experiment: cell_activity; mutated reads, HEK293FT
# Description: as §1, §2
# [35] = target: LPG50147-nAPG07433.1 (synthetic); experiment: cell_activity; mutated reads, HEK293FT
# Description: as §1, §2
# [36] = target: LPG50178-nAPG07433.1 (synthetic); experiment: cell_activity; mutated reads, HEK293FT
# Description: as §1, §2
# [37] = target: LPG50164-nAPG07433.1 (synthetic); experiment: cell_activity; mutated reads, HEK293FT
# LPG50164-nAPG07433.1 (synthetic), sequence (chain, as listed by the source): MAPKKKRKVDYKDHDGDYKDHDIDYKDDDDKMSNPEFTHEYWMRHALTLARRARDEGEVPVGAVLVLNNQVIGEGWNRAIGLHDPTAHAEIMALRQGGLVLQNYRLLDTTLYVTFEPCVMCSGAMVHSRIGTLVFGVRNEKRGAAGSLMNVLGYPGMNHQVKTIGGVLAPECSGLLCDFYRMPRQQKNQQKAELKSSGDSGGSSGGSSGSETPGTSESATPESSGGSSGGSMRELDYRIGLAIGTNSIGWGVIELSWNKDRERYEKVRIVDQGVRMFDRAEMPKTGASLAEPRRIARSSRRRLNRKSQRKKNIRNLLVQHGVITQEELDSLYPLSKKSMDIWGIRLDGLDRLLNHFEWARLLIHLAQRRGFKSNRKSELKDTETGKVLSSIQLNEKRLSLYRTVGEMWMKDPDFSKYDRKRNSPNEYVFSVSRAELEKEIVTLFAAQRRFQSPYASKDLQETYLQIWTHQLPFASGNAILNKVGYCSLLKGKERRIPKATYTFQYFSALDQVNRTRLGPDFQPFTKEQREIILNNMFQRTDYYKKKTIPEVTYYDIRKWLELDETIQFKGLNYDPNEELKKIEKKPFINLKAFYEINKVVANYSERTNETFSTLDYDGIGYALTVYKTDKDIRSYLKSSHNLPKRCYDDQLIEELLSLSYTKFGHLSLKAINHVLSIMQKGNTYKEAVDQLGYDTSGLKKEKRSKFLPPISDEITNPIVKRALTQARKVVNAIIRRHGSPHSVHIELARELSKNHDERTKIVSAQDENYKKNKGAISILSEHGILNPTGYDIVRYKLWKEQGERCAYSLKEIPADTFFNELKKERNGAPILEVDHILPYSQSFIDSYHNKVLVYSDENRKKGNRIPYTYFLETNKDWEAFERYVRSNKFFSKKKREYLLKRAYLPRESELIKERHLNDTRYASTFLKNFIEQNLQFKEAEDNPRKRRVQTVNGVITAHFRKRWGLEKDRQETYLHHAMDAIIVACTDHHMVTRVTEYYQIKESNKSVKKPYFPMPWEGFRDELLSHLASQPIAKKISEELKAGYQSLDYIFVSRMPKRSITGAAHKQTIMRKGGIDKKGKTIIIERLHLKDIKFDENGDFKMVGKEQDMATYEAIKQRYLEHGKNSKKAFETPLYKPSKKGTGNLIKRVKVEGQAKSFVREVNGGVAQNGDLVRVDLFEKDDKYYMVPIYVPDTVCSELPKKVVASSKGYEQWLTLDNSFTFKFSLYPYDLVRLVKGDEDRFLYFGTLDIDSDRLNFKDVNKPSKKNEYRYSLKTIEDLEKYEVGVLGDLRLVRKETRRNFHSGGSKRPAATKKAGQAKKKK
# Description: as §1, §2
# [38] = target: LPG50151-nAPG07433.1 (synthetic); experiment: cell_activity; mutated reads, HEK293FT
# Description: as §1, §2
binder,measurement,setting,value
B1,activity,[1],32.6%
same,activity,[2],18.8%
same,activity,[3],11%
same,activity,[4],10%
same,activity,[5],14.1%
same,activity,[6],17%
same,activity,[7],9.88%
same,activity,[8],8%
same,activity,[9],8%
same,activity,[10],12.2%
same,activity,[11],18%
same,activity,[12],12.5%
same,activity,[13],8%
same,activity,[14],7%
same,activity,[15],12.7%
same,activity,[16],14%
same,activity,[17],12.2%
same,activity,[18],23.7%
same,activity,[19],9.79%
same,activity,[20],4.91%
same,activity,[21],12.6%
same,activity,[22],9%
same,activity,[23],9.93%
same,activity,[24],13%
same,activity,[25],12.7%
same,activity,[26],6.99%
same,activity,[27],7%
same,activity,[28],16%
same,activity,[29],17.8%
same,activity,[30],22.1%
same,activity,[31],7.88%
same,activity,[32],10.6%
same,activity,[33],14%
same,activity,[34],12.2%
same,activity,[35],12.6%
same,activity,[36],12.9%
same,activity,[37],7.38%
same,activity,[38],7.76%
